{"source": "patent US7919462B2", "about": "“Inhibitors of human plasmin derived from the Kunitz domains” (Dyax Corp., priority 1994, dated 2011)", "key": {"[1]": {"biological_target": "T1, plasmin (Homo sapiens, UniProt P00747)", "T1 sequence (P00747 581-810 limits assumed)": "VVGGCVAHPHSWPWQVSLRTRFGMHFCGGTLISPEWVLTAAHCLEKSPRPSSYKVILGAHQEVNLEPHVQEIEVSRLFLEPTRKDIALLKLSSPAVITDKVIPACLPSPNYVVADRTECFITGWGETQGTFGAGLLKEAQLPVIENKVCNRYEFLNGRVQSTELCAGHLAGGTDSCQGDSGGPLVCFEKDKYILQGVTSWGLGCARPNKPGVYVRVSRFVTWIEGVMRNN", "T1 sequence (P00747 97-580 partner limits assumed)": "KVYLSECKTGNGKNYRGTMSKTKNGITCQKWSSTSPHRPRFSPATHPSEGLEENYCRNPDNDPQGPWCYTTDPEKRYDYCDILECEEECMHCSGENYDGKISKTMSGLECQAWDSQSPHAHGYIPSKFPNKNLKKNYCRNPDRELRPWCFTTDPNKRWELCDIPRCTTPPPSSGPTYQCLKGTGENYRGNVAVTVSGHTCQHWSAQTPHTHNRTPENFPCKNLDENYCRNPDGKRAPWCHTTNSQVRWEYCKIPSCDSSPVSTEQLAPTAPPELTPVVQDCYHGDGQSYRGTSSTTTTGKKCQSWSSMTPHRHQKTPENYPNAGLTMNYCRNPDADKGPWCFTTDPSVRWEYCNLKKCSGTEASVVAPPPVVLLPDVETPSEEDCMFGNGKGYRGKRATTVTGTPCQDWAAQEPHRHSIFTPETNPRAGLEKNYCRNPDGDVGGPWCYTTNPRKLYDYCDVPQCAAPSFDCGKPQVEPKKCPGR", "details": "cited from earlier work; for Kd: Table 4, plasmin, read-out: Affinity KD"}, "[2]": {"biological_target": "T1, plasmin", "experiment": "Inhibition of plasmin hydrolysis of succinyl-Ala-Phe-Lys-(F3Ac)AMC, tight-binding fit (Ki used as KD)", "assay_type": "biochemical", "text": "A second appropriate method of measuring KD is to measure the inhibitory activity against the enzyme. […] Here, we use the measured Ki as a direct measure of KD.\nInhibition of hydrolysis of succinyl-Ala-Phe-Lys-(F3Ac)AMC (a methyl coumarin) (Sigma Chemical, St. Louis, Mo.) by plasmin at 2.5×10^−8 M with varying amount of inhibitor were fit to the standard form for a tight-binding […] by least-squares."}, "[3]": {"biological_target": "T1, plasmin", "experiment": "Binding of display phage (KuDom on M13 gIIIp) to plasmin beads", "details": "in words"}}, "note": "Values joined by “and” are separate entries in the source; they are usually repeats but may differ in a detail not shown here. Equal values may be shown once. Read-outs that look alike come from different tables or passages of the source. Bridges are numbered along the chain shown (N, C = ends). Where no end group is shown, it is not given here."}
{"substance": "Human APP-I: human Kunitz domain APP-I, SEQ ID NO. 39 (VREVCSEQAETGPCRAMISRWYFDVTEGKCAPFFYGGCGGNRNNFDTEEYCMAVCGSA; listed as Homo sapiens)", "values": [{"measurement": "Ki", "setting": "[1]; AUER88, SCHN86, DENN94a", "result": 225, "unit": "nM"}, {"measurement": "Kd", "setting": "[1]; KIDO88", "result": 0.075, "unit": "nM"}, {"measurement": "Kd", "setting": "[1]; literature values (APP-I: DENN94a)", "result": 225, "unit": "nM"}]}
{"substance": "MHSFCAFKADDGPCKARFERFFFNIFTRQCEQFTYGGCGGNQNRFESLEECKKMCTRD (disulfide 5-55, 14-38, 30-51) [NS4]", "values": [{"measurement": "Ki", "setting": "[2]; Ki for plasmin, 150 mM salt", "result": "~2", "unit": "nM"}]}
{"substance": "MHSFCAFKADGGPCKGKFPRFFFNIFTRQCEEFIYGGCEGNQNRFESLEECKKMCTRD (disulfide 5-55, 14-38, 30-51) [SPI22]", "values": [{"measurement": "Kd", "setting": "[2]; Affinity KD", "result": "> 2", "unit": "nM"}]}
{"substance": "MHSFCAFKADSGPCRARFDRWFFNIFTRQCTRFPYGGCGGNQNRFESLEECKKMCTRD (disulfide 5-55, 14-38, 30-51) [SPI54]", "values": [{"measurement": "Ki", "setting": "[2]; Ki for plasmin, 150 mM salt", "result": "> 4", "unit": "nM"}]}
{"substance": "MHSFCAFKAETGPCRARFDRWFFNIFTRQCEEFIYGGCEGNQNRFESLEECKKMCTRD (disulfide 5-55, 14-38, 30-51) [SPI11]", "values": [{"measurement": "Kd", "setting": "[2]; Affinity KD", "result": 0.088, "unit": "nM"}, {"measurement": "Ki", "setting": "[2]; Ki for plasmin", "result": "0.088 nM and ~0.088 nM"}, {"measurement": "Kd", "setting": "[2]; affinity for plasmin", "result": "< 0.1", "unit": "nM"}]}
{"substance": "MHSFCAFKAETGPCRGKFDRWFFNIFTRQCESFHYGGCKGNQNRFESLEECKKMCTRD (disulfide 5-55, 14-38, 30-51) [SPI43]", "values": [{"measurement": "Ki", "setting": "[2]; Ki for plasmin", "result": "> 4", "unit": "nM"}]}
{"substance": "QS4: LACI-K1 derivative that binds human plasmin, SEQ ID NO. 4 (MHSFCAFKADDGPCKARFERFFFNIFTRQCEQFYYGGCDGNQNRFESLEECKKMCTRD; Synthetically generated peptide)", "values": [{"measurement": "Ki", "setting": "[2]; 150 mM salt, read-out: Ki for plasmin", "result": "~2", "unit": "nM"}, {"measurement": "Kd", "setting": "[2]; Table 4, plasmin, read-out: Affinity KD", "result": 2, "unit": "nM"}, {"measurement": "potency class for plasmin below the rank order of Table 8", "setting": "[2]; class words wrapped over r53-r54: Highly Superior / very potent / potent, order SPI11<BPTI<SPI23=SPI51<SPI47<QS4<SPI22<SPI54<SPI43", "result": "potent"}]}
{"substance": "SPI08: LACI-K1 derivative selected for plasmin binding, SEQ ID NO. 42 (MHSFCAFKADGGPCRARFERFFFNIFTRQCEEFIYGGCEGNQNRFESLEECKKMCTRD; Synthetically generated peptide)", "values": [{"measurement": "binding of clonally pure phage compared to BPTI display phage", "setting": "[3]", "result": "superior to BPTI phage"}]}
{"substance": "SPI15: LACI-K1 derivative selected for plasmin binding, SEQ ID NO. 41 (Table 6: 90) (MHSFCAFKAESGPCRARFDRWFFNIFTRQCEEFIYGGCEGNQNRFESLEECKKMCTRD; Synthetically generated peptide)", "values": [{"measurement": "binding of clonally pure phage compared to BPTI display phage", "setting": "[3]", "result": "superior to BPTI phage"}]}
